How the values were obtained:
human FcRn = target: T1, human FcRn (human, UniProt P55899 24-290; P61769 21-119, limits assumed); assay: SPR (Biacore), antibody held on immobilised human FcRn, FcγR injected, pH 7.4, 25 C
T1 construct: also called hFcRn

mouse FcγRIIb [1] = target: T2, mouse FcγRIIb (mouse, UniProt P08101 30-210, limits assumed); assay: as above
T2 sequence (looked up): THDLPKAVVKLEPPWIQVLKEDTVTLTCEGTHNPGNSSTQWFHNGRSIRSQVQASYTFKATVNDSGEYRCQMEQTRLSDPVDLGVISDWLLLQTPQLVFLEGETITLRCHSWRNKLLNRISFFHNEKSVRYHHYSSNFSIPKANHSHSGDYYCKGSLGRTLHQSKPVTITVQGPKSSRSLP

mouse FcγRI = target: T3, mouse FcγRI (mouse, UniProt P26151 25-297); assay: as above
T3 sequence (looked up): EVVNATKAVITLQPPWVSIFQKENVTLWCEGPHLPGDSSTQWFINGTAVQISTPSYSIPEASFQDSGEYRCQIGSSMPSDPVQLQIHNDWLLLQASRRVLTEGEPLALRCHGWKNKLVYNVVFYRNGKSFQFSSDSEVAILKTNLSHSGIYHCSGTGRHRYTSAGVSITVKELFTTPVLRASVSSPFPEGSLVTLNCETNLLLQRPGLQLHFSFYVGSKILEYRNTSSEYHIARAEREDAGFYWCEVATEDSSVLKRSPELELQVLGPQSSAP

human FcγRIIb = target: T4, human FcγRIIb (human, UniProt P31994 43-217, limits assumed); assay: as above
T4 construct: also called hFcgRIIb
T4 sequence: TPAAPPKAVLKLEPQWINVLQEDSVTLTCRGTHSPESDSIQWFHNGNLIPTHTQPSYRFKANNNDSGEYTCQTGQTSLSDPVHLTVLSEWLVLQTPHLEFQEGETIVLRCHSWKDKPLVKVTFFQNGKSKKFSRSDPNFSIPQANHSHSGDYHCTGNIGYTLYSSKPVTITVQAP

human FcγRIa [2] = target: T5, human FcγRIa (human, UniProt P12314 16-292, limits assumed); assay: as above
T5 construct: also called hFcgRI; hFcγRIa

mouse FcγRIII [3] = target: T6, mouse FcγRIII (mouse, UniProt P08508 31-215); assay: as above
T6 sequence (looked up): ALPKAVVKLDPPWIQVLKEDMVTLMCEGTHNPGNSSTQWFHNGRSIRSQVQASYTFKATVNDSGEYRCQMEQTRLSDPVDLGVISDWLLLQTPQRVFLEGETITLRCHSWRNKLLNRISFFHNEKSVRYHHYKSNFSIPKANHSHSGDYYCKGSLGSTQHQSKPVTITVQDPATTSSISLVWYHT

mouse FcγRIIb [4] = target: T2, mouse FcγRIIb; assay: Biacore, Protein L capture, mouse FcγR injected, pH 7.4, 25 C (Table 7 not given); weaker than F21
mouse FcγRIII [5] = target: T6, mouse FcγRIII; assay: as above
human FcγRIa [6] = target: T5, human FcγRIa; assay: Biacore, Protein L capture, human FcγR injected, pH 7.4, 25 C (Table 13 not given)
mouse FcγRIIb [7] = target: T2, mouse FcγRIIb; assay: Biacore, Protein L capture, mouse FcγR injected, pH 7.4, 25 C (Table 7 not given); weaker than F157

Measured: binding result

T5 sequence (P12314 16-292 limits assumed): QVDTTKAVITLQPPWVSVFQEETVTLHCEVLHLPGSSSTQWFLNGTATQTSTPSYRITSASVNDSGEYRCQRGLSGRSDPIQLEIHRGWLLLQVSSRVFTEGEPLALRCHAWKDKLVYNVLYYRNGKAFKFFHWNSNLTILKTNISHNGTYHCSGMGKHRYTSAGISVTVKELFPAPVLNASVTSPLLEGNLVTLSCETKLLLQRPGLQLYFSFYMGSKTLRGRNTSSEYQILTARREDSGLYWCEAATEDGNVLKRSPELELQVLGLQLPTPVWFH
T1 sequence (P55899 24-290 limits assumed, chain 1 of 2): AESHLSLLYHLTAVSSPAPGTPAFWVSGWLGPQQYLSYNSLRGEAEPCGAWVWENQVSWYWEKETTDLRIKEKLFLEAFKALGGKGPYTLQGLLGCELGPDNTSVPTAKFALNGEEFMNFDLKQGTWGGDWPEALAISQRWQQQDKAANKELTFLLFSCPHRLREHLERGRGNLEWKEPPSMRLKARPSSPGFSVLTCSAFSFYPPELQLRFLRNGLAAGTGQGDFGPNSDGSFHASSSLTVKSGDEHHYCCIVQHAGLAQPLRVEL
T1 sequence (P61769 21-119 limits assumed, chain 2 of 2): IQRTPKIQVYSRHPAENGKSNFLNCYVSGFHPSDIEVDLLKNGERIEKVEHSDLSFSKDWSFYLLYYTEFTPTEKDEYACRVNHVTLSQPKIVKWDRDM

B1: Fv4-IgG1-F157 (antibody)
heavy: QVQLQESGPGLVKPSETLSLTCAVSGHSISHDHAWSWVRQPPGEGLEWIGFISYSGITNYNPSLQGRVTISRDNSKNTLYLQMNSLRAEDTAVYYCARSLARTTAMDYWGEGTLVTVSSASTKGPSVFPLAPSSKSTSGGTAALGCLVKDYFPEPVTVSWNSGALTSGVHTFPAVLQSSGLYSLSSVVTVPSSSLGTQTYICNVNHKPSNTKVDKKVEPKSCDKTHTCPPCPAPELLGGPSVFLFPPKPKDTLMISRTAEVTCVVVDVSHEDPEVKFNWYVDGVEVHNAKTKPREEQYNSTYRVVSVLTPLHQDWLNGKEYKCKVSNKALPAPIEKTISKAKGQPREPQVYTLPPSRDELTKNQVSLTCLVKGFYPSDIAVEWESNGQPENNYKTTPPVLDSDGSFFLYSKLTVDKSRWQQGNVFSCSVLHEALHYHYTQKSLSLSP
light: DIQMTQSPSSLSASVGDSVTITCQASTDISSHLNWYQQKPGKAPELLIYYGSHLLSGVPSRFSGSGSGTDFTFTISSLEAEDAATYYCGQGNRLPYTFGQGTKVEIERTVAAPSVFIFPPSDEQLKSGTASVVCLLNNFYPREAKVQWKVDNALQSGNSQESVTEQDSKDSTYSLSSTLTLSKADYEKHKVYACEVTHQGLSSPVTKSFNRGEC
notes: VH3-IgG1-F157 with VL3-CK; copies: 2 + 2
binds: human FcRn | mouse FcγRIIb [1] | mouse FcγRI | human FcγRIIb | human FcγRIa [2] | mouse FcγRIII [3]

B2: VH3/L(WT)-IgG1-F140 (antibody)
heavy: QVQLQESGPGLVKPSETLSLTCAVSGHSISHDHAWSWVRQPPGEGLEWIGFISYSGITNYNPSLQGRVTISRDNSKNTLYLQMNSLRAEDTAVYYCARSLARTTAMDYWGEGTLVTVSSASTKGPSVFPLAPSSKSTSGGTAALGCLVKDYFPEPVTVSWNSGALTSGVHTFPAVLQSSGLYSLSSVVTVPSSSLGTQTYICNVNHKPSNTKVDKKVEPKSCDKTHTCPPCPAPELLGGPKVFLFPPKPKDTLYISRTPEVTCVVVDVSHEDPEVKFNWYVDGVEVHNAKTKPREEQYNSTYRVVSVLTPLHQDWLNGKEYKCKVSNKALPAPIEKTISKAKGQPREPQVYTLPPSRDELTKNQVSLTCLVKGFYPSDIAVEWESNGQPENNYKTTPPVLDSDGSFFLYSKLTVDKSRWQQGNVFSCSVMHEALHYHYTQKSLSLSP
light: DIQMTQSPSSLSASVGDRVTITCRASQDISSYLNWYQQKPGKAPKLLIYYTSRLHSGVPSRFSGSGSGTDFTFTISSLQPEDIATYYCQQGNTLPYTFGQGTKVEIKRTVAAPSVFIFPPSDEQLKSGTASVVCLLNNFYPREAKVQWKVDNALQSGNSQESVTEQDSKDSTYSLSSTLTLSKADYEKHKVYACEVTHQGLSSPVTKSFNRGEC
notes: VH3-IgG1-F21 with S239K (EU); measured with L(WT)-CK; also called Fv4-IgG1-F140; copies: 2 + 2
binds: mouse FcγRIIb [4] | mouse FcγRIII [5] | human FcγRIa [6]

B3: VH3/L(WT)-IgG1-F424 (antibody)
heavy: QVQLQESGPGLVKPSETLSLTCAVSGHSISHDHAWSWVRQPPGEGLEWIGFISYSGITNYNPSLQGRVTISRDNSKNTLYLQMNSLRAEDTAVYYCARSLARTTAMDYWGEGTLVTVSSASTKGPSVFPLAPSSKSTSGGTAALGCLVKDYFPEPVTVSWNSGALTSGVHTFPAVLQSSGLYSLSSVVTVPSSSLGTQTYICNVNHKPSNTKVDKKVEPKSCDKTHTCPPCPAPELLGGPKVFLFPPKPKDTLMISRTAEVTCVVVDVSHEDPEVKFNWYVDGVEVHNAKTKPREEQYNSTYRVVSVLTPLHQDWLNGKEYKCKVSNKALPAPIEKTISKAKGQPREPQVYTLPPSRDELTKNQVSLTCLVKGFYPSDIAVEWESNGQPENNYKTTPPVLDSDGSFFLYSKLTVDKSRWQQGNVFSCSVLHEALHYHYTQKSLSLSP
light: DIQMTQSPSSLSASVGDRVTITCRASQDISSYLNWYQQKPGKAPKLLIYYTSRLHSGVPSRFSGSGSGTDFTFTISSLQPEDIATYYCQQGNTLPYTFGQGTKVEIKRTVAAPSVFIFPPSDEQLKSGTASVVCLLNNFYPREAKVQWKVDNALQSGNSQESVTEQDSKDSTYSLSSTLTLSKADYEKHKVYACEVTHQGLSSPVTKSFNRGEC
notes: VH3-IgG1-F157 with S239K (EU); measured with L(WT)-CK; also called Fv4-IgG1-F424; copies: 2 + 2
binds: mouse FcγRIIb [7]

Source: WO2012132067A1 (dated 2012)
